Assays:
[1] = target: human CD5 on cells (MOLT-4 human T lymphoblast cells; primary human T-cells) (human) (UniProt P06127); experiment: flow cytometry on MOLT-4 cells, anti-mouse AF488 secondary, 4 C
[2] = target: purified human CD5 ectodomain (human) (UniProt P06127); experiment: BLI (Octet Red96), antibody on anti-human Fc biosensors, 50 nM CD5 ectodomain, 25 C
[3] = target: human CD5 on cells (MOLT-4 human T lymphoblast cells; primary human T-cells) (human) (UniProt P06127); experiment: flow cytometry on primary human T-cells, AF488 secondary, antibody titration at 37 C

Row | EC50 [1] | Kd [2] | Response [2] | koff [2] | kon [2] | EC50 [3] | Molecule
1 | 0.354 nM | – | – | – | – | – | murine anti-CD5 antibody UCHT2 (BioLegend)
2 | 0.043 nM | – | – | – | – | – | murine anti-CD5 antibody CRIS-1 (Novus Biologicals)
3 | – | 0.141 nM | 0.67 nm | 3.36e-05 s⁻¹ | 239000 M⁻¹ s⁻¹ | 0.003 nM | anti-CD5 antibody 5D7 hIgG1 (humanized version of murine antibody 5D7) (antibody, V domains shown) VH: QVTLKESGPVLVKPTETLTLTCTFSGFSLSTSGMGVGWIRQAPGKGLEWVAHIWWDDDVYYNPSLKSRLTITKDASKDQVSLKLSSVTAADTAVYYCVRRRATGTGFDYWGQGTLVTVSS VL: NIVMTQSPSSLSASVGDRVTITCQASQDVGTAVAWYQQKPDQSPKLLIYWTSTRHTGVPDRFTGSGSGTDFTLTISSLQPEDIATYFCHQYNSYNTFGSGTKLEIK

— US20200276326A1
